Results taken from patent publication WO2022210830A1 (dated 2022).

Key:
Experiment in all cases: cell-based or functional assay
[1] = biological target: Omicron strain spike protein on pseudotype virus (SARS-CoV-2, UniProt P0DTC2 14-1273)
[2] = biological target: Kappa strain spike protein on pseudotype virus (SARS-CoV-2, UniProt P0DTC2 14-1273)
[3] = biological target: Delta strain spike protein on pseudotype virus (SARS-CoV-2, UniProt P0DTC2 14-1273)

B1: 0210-28K (antibody, V domains shown)
VH: QMQLVQSGPEVKKPGTSVKVSCKASGFTFSISAVQWVRQARGQRLEWIGWIVVGSGNTNYAQKFQERVTITRDMSTSTAYMELSSLRFEDTAVYYCAAPYCGGDCSDGFDIWGQGTMVTVSS
VL: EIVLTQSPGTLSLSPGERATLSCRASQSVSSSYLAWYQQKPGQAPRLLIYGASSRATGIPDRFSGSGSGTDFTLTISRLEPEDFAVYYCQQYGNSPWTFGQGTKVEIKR
- IC50, inhibition of pseudotype virus infection (luciferase) [1]: ~0.2 nM
- IC50, inhibition of pseudotype virus infection, 1st experiment [2]: 0.0108 µg/mL
- IC50, inhibition of pseudotype virus infection, 2nd experiment [2]: 0.0203 µg/mL
- IC50, inhibition of pseudotype virus infection, 1st experiment [3]: < 0.0075 µg/mL
- IC50, inhibition of pseudotype virus infection, 2nd experiment [3]: 0.0121 µg/mL
